The subject of experiment [1] is PST PIP - PTP HSCF association. The experiment in a line: Coprecipitation of PST PIP and PTP HSCF from co-transfected COS cells. In kind it is cell-based. As to the method:
(§1) COS-7 cells were transfected by electroporation. Briefly, 1.5×10^6 COS-7 cells were mixed with 24 μg total DNA in PBS and electroporated at 960 μF, […] (Bio-Rad™ Gene Pulsar™). Following electroporation, cells were seeded in 10 cm dishes and incubated for 3 days. 10-cm dishes of transfected COS cells were washed twice with ice-cold PBS, and lysed in 1 ml of M-RIPA (50 mM Tris 7.4, 1% NP40, 0.25% DOC, 150 mM NaCl, 1 mM sodium ortho-vanadate, 1 mM NaF plus Complete™ Protease Inhibitors (Boehringer Mannheim)). Lysates were incubated for 15 minutes with 100 μl UltraLink Immobilized Protein A/G™ (Pierce) at 4° C., followed by centrifugation for 5 minutes. Supernatants were collected and stored at −70° C. or directly immunoprecipitated. 5 μg of M2 or 12CA5 was added to 500 μl of lysate and incubated overnight at 4° C. Ultralink Protein A/G™ was added and incubation continued for 2 hours at 4° C. The immune complexes were washed 3 times with M-RIPA. The proteins were subjected to SDS-PAGE and transferred to nitrocellulose in 1X Transfer Buffer™ (Novex). Immunoblots were blocked overnight at 4° C. in 3% milk/PBS. To detect Flag-tagged PIP, blots were incubated with 10 μg/ml Bio-M2 (Biotinylated anti-FLAG monoclonal Ab, KODAK) followed by incubation in 10 μg/ml streptavidin-HRP (UBI). To detect HA-tagged PTPhscf, blots were incubated in anti-(HA)-peroxidase (Boehringer Mannheim) as per manufacturer's instructions. To detect phosphotyrosine, blots were incubated in HRP-conjugated 4G10 (anti-phosphotyrosine monoclonal, UBI) as per manufacture's instructions.
In vitro binding analyses between various PTP HSCF and PST PIP constructs were performed as previously described (Spencer et al, (1997), supra). Briefly, plasmids were transcribed and translated in vitro using the TnT Rabbit Reticulocyte Lysate System (Promega). Samples were diluted in 50 mM HEPES, pH 7.2, 1% triton X-100, 10% glycerol, 100 mM NaCl, and 2 μg/ml each of leupeptin, pepstatin, aprotinin and PMSF (lysis buffer). Samples were than reacted with GST fusion proteins at various concentrations, and the bound proteins were centrifuged using glutathione-sepharose beads and analyzed on SDS polyacrylamide gels. C-terminally-derived peptide inhibition studies were performed by incubating the GST fusion protein binding reactions in the presence of 10 μg/ml of the indicated peptides. Peptides were produced by FMOC-protected amino acids as previously described (Spencer et al, (1997), supra). In vivo interactions between various forms of PTP HSCF and PST PIP were also performed as previously described (Spencer et al, (1997), supra). Briefly, COS cells were transfected with various constructs, and after 48 hours, lysates were prepared and immunoprecipitated with antibodies to either the FLAG epitope contained at the C-terminus of PST PIP or an HA epitope contained at the N-terminus of PTP HSCF. The resultant blots were probed with anti-FLAG to detect PST PIP, anti-HA to detect PTP HSCF or anti-phosphotyrosine to detect levels of this modified amino acid in each protein.

For experiment [2], the system named is PSTPIP tyrosine phosphorylation. The experiment in a line: Tyrosine phosphorylation of PSTPIP in COS cells co-transfected with V-src. The settings on record: COS cells. The class given is cell-based. How it is done:
Baf3 cells were lysed in 1% Triton, 50 mM HEPES. 10% glycerol and 5 mM EDTA containing 1 μg/ml aprotinin, PMSF, leupeptin and pepstatin were 1 mM Sodium Vanadate and 10 mM Iodoacetic acid. Cells were treated with 0.1 mM Pervanadate for 4 hours before lysis. Immunoprecipitations were performed in the vanadate-containing lysis buffer using 1 μg/ml anti-PSTPIP polyclonal antibody and 400 μg of lysate protein at 4° C. overnight. Western blots were performed using 1 μg/ml affinity purified anti-PSTPIP or 1:5000 dilution of commercial 4G10 anti-phosphotyrosine monoclonal (Upstate Biotech). Signal was detected by HRPO-ECL reagents (Pierce). The C221-S mutant was as previously described (Cheng et al., (1996) supra). The PTP HSCF D197-A mutant was generated using PCR. Mutagenesis primer D197A.F ([…]) (SEQ ID NO:24), corresponding to nucleotide 591, and primer D197A.R ([…]) (SEQ ID NO:25) which corresponds to the stop codon, were used in PCR to generate a fragment that could be cut with Mscl and XbaI. pRK.HA.38 WT, a plasmid which encoded the wild type enzyme under the control of the cytomegalovirus promoter (Cheng et al., (1996) supra), was digested with Clal and Mscl and the resulting 600 bp fragment was ligated with the Mscl-Xbal PCR fragment into the Clal and Xbal sites of the pRK.tkneo. A plasmid encoding the V-src oncogene under the control of the SV40 early promoter was the kind gift of Dr. Art Levinson (CEO-Genetech, Inc.). NIH 3T3 cells and the COS-7 cells were cultured in high glucose DMEM supplemented with 10% FBS, 2 mM L-Glutamine, 10 mM HEPES pH 7.2 and pen-strep.
as §1
COS cells were transfected with a constant amount of either the wild type of W232A mutant of PST PIP and cotransfected with increasing amounts of a plasmid encoding the v-Src tyrosine kinase (Spencer et al, (1997), supra). Plasmid concentrations were equalized with an empty vector containing the CMV promoter. After 48 hours, lysates were prepare and immunoprecipitated with anti-FLAG monoclonal antibody. Precipitates were run on SDS polyacrylamide gels, blotted, and probed with either anti-FLAG antibody or anti-phosphotyrosine antibody as previously described (Spencer et al, (1997), supra). Bound antibodies were visualized using enhanced chemiluminescent reagents.

Entries after “also recorded” stand apart in the source; their conditions may differ. Read-outs that look alike come from different tables or passages of the source.

B1: PSTPIP: murine PST Phosphatase Interacting Protein, 415 residues (SEQ ID NO:1) (protein)
chain: MMAQLQFRDAFWCRDFTAHTGYEVLLQRLLDGRKMCKDVEELLRQRAQAEERYGKELVQIARKAGGQTEMNSLRTSFDSLKQQTENVGSAHIQLALALREELRSLEEFRERQKEQRKKYEAIMDRVQKSKLSLYKKTMESKKAYDQKCRDADDAEQAFERVSANGHQKQVEKSQNKAKQCKESATEAERVYRQNIEQLERARTEWEQEHRTTCEAFQLQEFDRLTILRNALWVHCNQLSMQCVKDDELYEEVRLTLEGCDVEGDINGFIQSKSTGREPPAPVPYQNYYDREVTPLIGSPSIQPSCGVIKRFSGLLHGSPKTTPSAPAASTETLTPTPERNELVYASIEVQATQGNLNSSAQDYRALYDYTAQNSDELDISAGDILAVILEGEDGWWTVERNGQRGFVPGSYLEKL
modifications: Mus Musculus
As to B1, the “in vivo association (coprecipitation) of PST PIP and PTP HSCF” value in experiment [1] (listed as PST PIP wt) is “found in a complex with precipitated PTP HSCF”; in experiment [1] (listed as wild type PST PIP), “in vivo association of the proteins”. Moreover, the “tyrosine phosphorylation of PST PIP forms in the presence of dominant negative PTP HSCF C-S (substrate trapping)” value is “hyperphosphorylated” in experiment [2] (listed as PST PIP wt) and “enhanced tyrosine phosphorylation” in experiment [2] (listed as wild type PST PIP).

B2: W232A mutant of PST PIP, C-terminal FLAG (other)
chain: MMAQLQFRDAFWCRDFTAHTGYEVLLQRLLDGRKMCKDVEELLRQRAQAEERYGKELVQIARKAGGQTEMNSLRTSFDSLKQQTENVGSAHIQLALALREELRSLEEFRERQKEQRKKYEAIMDRVQKSKLSLYKKTMESKKAYDQKCRDADDAEQAFERVSANGHQKQVEKSQNKAKQCKESATEAERVYRQNIEQLERARTEWEQEHRTTCEAFQLQEFDRLTILRNALAVHCNQLSMQCVKDDELYEEVRLTLEGCDVEGDINGFIQSKSTGREPPAPVPYQNYYDREVTPLIGSPSIQPSCGVIKRFSGLLHGSPKTTPSAPAASTETLTPTPERNELVYASIEVQATQGNLNSSAQDYRALYDYTAQNSDELDISAGDILAVILEGEDGWWTVERNGQRGFVPGSYLEKLDYKDDDDK
notes: In vitro translated or expressed in COS cells; also called W232A PST PIP; PST PIP with an alanine replacement mutation at tryptophan232
For B2, in experiment [1], the “in vivo association (coprecipitation) of PST PIP and PTP HSCF” value is “complete lack of in vivo association; also recorded: neither coprecipitated with PTP HSCF”. Besides, in experiment [2], the “efficiency of tyrosine phosphorylation in the presence of v-Src versus wild type” value is recorded as “significantly more efficiently tyrosine phosphorylated” and the “tyrosine phosphorylation of PST PIP forms in the presence of dominant negative PTP HSCF C-S (substrate trapping)” value is recorded as “not hyperphosphorylated”. For the same molecule, in experiment [2] (increasing v-Src plasmid), the “levels of phosphotyrosine in mutant versus wild type PST PIP, densitometry” value is reported as 2-3 fold.

The values above are taken from US6887705B1, “Tyrosine phosphorylated cleavage furrow-associated proteins (PSTPIPs)” (Genentech, Inc., priority 1997, dated 2005).
